# Measurements from paper PMC3349339 (Journal of Molecular Biology, 2012).
# Biological target: HLA-DR1 with a His→Asn substitution at position β81 (human)
# Assay: fluorescence polarisation
row,Substance,t1/2 [h]
1,"fluorescein-labelled HA peptide P1,9 LA (from UniProt P03437 322-334)",34
2,"fluorescein-labelled HA peptide P1,9 LS (from UniProt P03437 322-334)",5.93
3,fluorescein-labelled HA peptide P1 V (from UniProt P03437 322-334),47.9
4,fluorescein-labelled HA peptide P9 A (from UniProt P03437 322-334),43.6
5,"fluorescein-labelled HA peptide P1,9 VA (from UniProt P03437 322-334)",14.4
6,fluorescein-labelled HA peptide P9 S (from UniProt P03437 322-334),19.3
7,"fluorescein-labelled HA peptide P1,9 VS (from UniProt P03437 322-334)",1.65
8,fluorescein-labelled HA peptide P1 L (from UniProt P03437 322-334),55.6

# Biological target: HLA-DR1 with a His→Asn substitution at position β81 (human)
# Assay: not given
row,Substance,Kd [nM]
1,"HA peptide P1,9 VA (from UniProt P03437 322-334)",739
2,HA peptide P9 S (from UniProt P03437 322-334),130
3,"HA peptide P1,9 LA (from UniProt P03437 322-334)",206
4,"HA peptide P1,9 VS (from UniProt P03437 322-334)",8170
5,"HA peptide P1,9 LS (from UniProt P03437 322-334)",1880
6,HA peptide P9 A (from UniProt P03437 322-334),126
7,HA peptide P1 L (from UniProt P03437 322-334),67.9
8,HA peptide P1 V (from UniProt P03437 322-334),89.4
